Reference: patent US20140239237A1 (BOARD OF TRUSTEES OF MICHIGAN STATE UNIVERSITY, published 2014)
Residue numbers refer to the chain shown, from its start. Numbers in names are those of the source.

B1: PilA19 peptide (19 amino acid N-terminal truncation of G. sulfurreducens PilA) (peptide)
peptide: AIPQFSAYRVKAYNSAASSDLRNLKTALESAFADDQTYPPES
notes: 42 residues, released from the CBD-intein fusion with DTT; also called PilA19 subunit; PilA19 monomer
B2: PilA19-A20C cysteine-modified recombinant pilin (peptide)
peptide: B1 peptide with A1C
notes: 42 residues; The N-terminal alanine of PilA19, position 20 of full-length mature PilA, is replaced by cysteine; also called cysteine-modified subunit; PilA19-A20C monomer

What was measured:
[1] = target: the molecule itself; assay: in vitro self-assembly into fibers, seen by TEM and AFM
[2] = target: the molecule itself; assay: in vitro self-assembly, TEM

Protein | binding result [1] | binding result [2]
B1 | binds | –
B2 | – | binds
